Results reported in article PMC7859202, “A scaffold lncRNA shapes the mitosis to meiosis switch”.

T1: RRM3Mei2 (Schizosaccharomyces pombe, UniProt P08965 579-750)
T1 sequence: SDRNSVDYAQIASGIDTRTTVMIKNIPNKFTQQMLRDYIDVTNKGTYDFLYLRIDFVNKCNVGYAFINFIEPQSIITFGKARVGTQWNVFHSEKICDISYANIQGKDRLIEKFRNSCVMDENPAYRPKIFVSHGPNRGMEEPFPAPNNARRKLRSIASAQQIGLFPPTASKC

B1: poly-U15 (ssRNA)
RNA: UUUUUUUUUUUUUUU
B2: U6GGU7 (ssRNA)
RNA: UUUUUUGGUUUUUUU
B3: GCUUUUUGUUCG 12-mer (ssRNA)
RNA: GCUUUUUGUUCG
B4: U7GU7 (ssRNA)
RNA: UUUUUUUGUUUUUUU

These binders were tested against T1, RRM3Mei2 (assay: ITC; ITC: 20 mM Tris-HCl pH 7.5, 200 mM NaCl, 5 mM 2-mercaptoethanol, 20 °C; N fixed to 1). Conditions: protein: recombinant; tags: GST-tag removed by 3C protease.

| Binder | Kd |
| --- | --- |
| B1 | 1430 ± 194 nM |
| B2 | 435 ± 112 nM |
| B3 | 555 ± 166 nM |
| B4 | 145 ± 26 nM |
